Results from publication PMC4156911.
Read-outs that look alike come from different tables or passages of the source.

B1: his pause ePEC scaffold (RNA-7604, tDNA 5420, ntDNA 5069) (mixed)
RNA: UCAUCCGGCGAUGUGUGCU
DNA 1: CTCTGAATCTCTTCCAGCACACATCAGGACGTACTGACC
DNA 2: GGTCAGTACGTCCATTCGATCTTCGGAAGAGATTCAGAG
modifications: pyrrolo-cytosine at RNA nt 5 (Z in the printed sequence)
B2: his pause ePEC scaffold + 8mer asRNA (RNA-6598) (mixed)
RNA 1: UCAUCCGGCGAUGUGUGCU
DNA 1: B1 DNA 1
DNA 2: B1 DNA 2
RNA 2: CCGGAUGA
modifications: pyrrolo-cytosine at RNA nt 5 (Z in the printed sequence)

Columns and labels:
[1] = target: T1, E. coli core RNA polymerase (wild-type) (Escherichia coli, UniProt P0A7Z4;P0A8V2;P0A8T7;P0A800 1-329;1-1342;1-1407;1-91); assay: EMSA
T1 sequence (P0A7Z4 whole entry, chain 1 of 3): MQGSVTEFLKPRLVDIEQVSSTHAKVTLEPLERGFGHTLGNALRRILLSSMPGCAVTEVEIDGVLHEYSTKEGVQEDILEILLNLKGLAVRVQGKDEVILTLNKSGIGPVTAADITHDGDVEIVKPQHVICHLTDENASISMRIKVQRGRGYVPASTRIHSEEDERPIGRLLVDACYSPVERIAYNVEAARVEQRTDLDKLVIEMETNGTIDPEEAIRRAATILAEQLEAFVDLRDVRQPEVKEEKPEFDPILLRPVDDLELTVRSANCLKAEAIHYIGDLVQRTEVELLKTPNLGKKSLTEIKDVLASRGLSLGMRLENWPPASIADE
T1 sequence (P0A8V2 whole entry, chain 2 of 3): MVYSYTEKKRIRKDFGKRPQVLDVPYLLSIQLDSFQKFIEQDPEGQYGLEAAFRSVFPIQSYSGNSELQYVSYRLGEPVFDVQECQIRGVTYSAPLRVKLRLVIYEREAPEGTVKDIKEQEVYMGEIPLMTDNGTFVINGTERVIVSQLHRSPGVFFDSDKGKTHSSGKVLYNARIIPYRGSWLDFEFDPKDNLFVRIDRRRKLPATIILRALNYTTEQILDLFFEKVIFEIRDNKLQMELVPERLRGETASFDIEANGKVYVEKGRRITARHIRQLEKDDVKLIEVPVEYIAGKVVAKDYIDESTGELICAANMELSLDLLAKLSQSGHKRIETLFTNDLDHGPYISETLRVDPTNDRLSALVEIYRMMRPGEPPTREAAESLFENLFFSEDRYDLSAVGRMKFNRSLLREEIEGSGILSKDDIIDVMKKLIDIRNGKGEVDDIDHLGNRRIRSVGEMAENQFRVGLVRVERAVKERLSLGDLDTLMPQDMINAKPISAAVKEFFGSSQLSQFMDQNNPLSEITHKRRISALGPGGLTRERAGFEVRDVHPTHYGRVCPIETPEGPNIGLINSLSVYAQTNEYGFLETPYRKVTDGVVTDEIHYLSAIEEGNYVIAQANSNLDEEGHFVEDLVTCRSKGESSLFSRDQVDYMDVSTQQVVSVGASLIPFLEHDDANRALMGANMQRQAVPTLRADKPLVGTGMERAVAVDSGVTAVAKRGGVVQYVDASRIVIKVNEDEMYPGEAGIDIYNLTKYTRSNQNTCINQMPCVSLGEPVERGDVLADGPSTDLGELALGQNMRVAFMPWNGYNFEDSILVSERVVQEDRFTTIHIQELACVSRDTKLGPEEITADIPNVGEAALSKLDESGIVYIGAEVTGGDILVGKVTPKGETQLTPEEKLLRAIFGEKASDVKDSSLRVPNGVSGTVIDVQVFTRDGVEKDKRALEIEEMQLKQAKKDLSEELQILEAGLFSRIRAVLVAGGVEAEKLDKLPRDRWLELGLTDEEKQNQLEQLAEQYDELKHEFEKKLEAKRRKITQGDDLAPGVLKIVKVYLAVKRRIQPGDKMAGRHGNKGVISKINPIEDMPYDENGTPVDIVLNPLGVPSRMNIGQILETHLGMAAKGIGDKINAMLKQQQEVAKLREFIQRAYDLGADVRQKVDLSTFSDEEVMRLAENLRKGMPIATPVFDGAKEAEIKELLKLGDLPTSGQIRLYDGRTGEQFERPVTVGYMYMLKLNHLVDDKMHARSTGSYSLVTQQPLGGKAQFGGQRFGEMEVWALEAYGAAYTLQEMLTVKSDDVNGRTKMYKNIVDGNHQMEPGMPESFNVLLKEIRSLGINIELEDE
T1 sequence (P0A800 whole entry, chain 4 of 3): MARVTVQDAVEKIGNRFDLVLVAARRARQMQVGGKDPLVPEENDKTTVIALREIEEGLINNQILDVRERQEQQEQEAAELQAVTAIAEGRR

[2] = target: T1, E. coli core RNA polymerase (wild-type); assay: EMSA; remark: listed apart in the source

Binder	binding result [1]	binding result [2]
B1	binds	
B2		binds
